Assay results from PMC7283332, “convertibleCARs: A chimeric antigen receptor system for flexible control of activity and antigen targeting” (Communications Biology, 2020).

Target: T1, ULBP2 α1α2 domain, C-terminal 6×-His (human, UniProt Q9BZM5 29-212)
T1 construct: ULBP2, human, α1α2 domains, UniProtKB Q9BZM5 residues 29-212; monomeric protein; also called wild-type ULBP2; MIC-His ligand; source: Expi293 supernatant, purified (Ni-NTA); not shown: His6, C-terminal, kept
T1 sequence (looked up): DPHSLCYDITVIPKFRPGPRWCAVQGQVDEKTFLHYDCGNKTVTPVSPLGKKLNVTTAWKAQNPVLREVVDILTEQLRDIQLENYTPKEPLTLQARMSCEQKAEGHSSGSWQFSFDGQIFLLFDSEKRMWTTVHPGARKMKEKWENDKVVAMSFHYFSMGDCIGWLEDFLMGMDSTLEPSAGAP
Assay: BLI; FortéBio Octet; Fc-wtNKG2D, Fc-iNKG2D.YA or Fc-iNKG2D.AF captured on anti-human IgG Fc capture (AHC) biosensor tips; titration series of monomeric MIC-His ligands or monomeric ULBP2 variants
Conditions: both partners purified

B1: Fc-wtNKG2D (Fc fusion, human, UniProt P26718 78-216, looked up)
chain: FLNSLFNQEVQIPLTESYCGPCPKNWICYKNNCYQFFDESKNWYESQASCMSQNASLLKVYSKEDQDLLKLVKSYHWMGLVHIPTNGSWQWEDGSILSPNLLTIIEMQKGDCALYASSFKGYIENCSTPNTYICMQRTV
notes: NKG2D wild-type ectodomain, human, UniProtKB P26718 residues 78-216; NKG2D is fused to the C-terminus of the Fc through a factor Xa site linker Ile-Glu-Gly-Arg (IEGR); also called wild-type NKG2D; source: Expi293 cells, secreted, purified (Protein A, SEC); not shown: Fc (human IgG1), N-terminal, kept
binding result: binds
